Measured values reported in patent US20250381289A1 (Genmab, published 2025).

Columns and labels:
[1] = target: T1, EGFR on EGFR and cMET co-expressed tumor cell lines (UniProt P00533 25-1210, limits assumed); test: flow cytometry, EBC-1 cells (co-express EGFR and cMET; both arms contribute)
T1 construct: whole, on cells

[2] = target: T2, cMET on EGFR and cMET co-expressed tumor cell lines (UniProt P08581 25-1390, limits assumed); test: as above
T2 construct: whole, on cells

[3] = target: T1, EGFR on EGFR and cMET co-expressed …; test: flow cytometry, SNU-5 cells (co-express EGFR and cMET; both arms contribute)
[4] = target: T2, cMET on EGFR and cMET co-expressed …; test: as above
[5] = target: T1, EGFR on EGFR and cMET co-expressed …; test: flow cytometry on EBC-1 cells (co-express EGFR and cMET), PE anti-human Fc; signal of the whole bispecific, not resolved by arm
Description: (§1) EBC-1, ACHN and CAL-27 were cultured with DMEM medium (Gibco, Cat #C11995500BT) containing 10% FBS. […] Each antibody was incubated with different cell lines (1×10⁵ cells per well) for 30 mins in 0.2 mL FACS buffer (1×PBS with 0.1% BSA) at 4° C. After wash, cells were incubated with 100 μL PE-conjugated anti human Fc (Abcam, Ab98596, 1:500 dilution) for 30 mins at 4° C. After wash with PBS, cells were resuspended in FACS buffer and analyzed by flow cytometer (Beckman, CytoFLEX).

[6] = target: T2, cMET on EGFR and cMET co-expressed …; test: as above
Description: as §1

[7] = target: T1, EGFR on EGFR and cMET co-expressed …; test: flow cytometry on SNU-5 cells (co-express EGFR and cMET), PE anti-human Fc; signal of the whole bispecific, not resolved by arm
Description: as §1

[8] = target: T2, cMET on EGFR and cMET co-expressed …; test: as above
Description: as §1

[9] = target: T1, EGFR on EGFR and cMET co-expressed …; test: flow cytometry on CAL-27 cells (co-express EGFR and cMET), PE anti-human Fc; signal of the whole bispecific, not resolved by arm
[10] = target: T2, cMET on EGFR and cMET co-expressed …; test: as above
[11] = target: T2, cMET on EGFR and cMET co-expressed …; test: flow cytometry, EBC-1 cells (co-express EGFR and cMET; both arms contribute); remark: listed apart in the source
Description: EBC-1 was cultured with DMEM medium (Gibco, Cat #C11995500BT) containing 10% FBS. […] Each antibody was incubated with different cell lines (1×10⁵ cells/well) for 30 min in 0.2 mL FACS buffer (1×PBS with 0.1% BSA) at 4° C. After wash, cells were incubated with 100 μL PE-conjugated anti human Fc (Abcam, Ab98596, 1:500 dilution) for 30 min at 4° C. After wash with PBS, cells were resuspended in FACS buffer and analyzed by flow cytometer (Beckman, CytoFLEX).

T2 sequence (P08581 25-1390 limits assumed): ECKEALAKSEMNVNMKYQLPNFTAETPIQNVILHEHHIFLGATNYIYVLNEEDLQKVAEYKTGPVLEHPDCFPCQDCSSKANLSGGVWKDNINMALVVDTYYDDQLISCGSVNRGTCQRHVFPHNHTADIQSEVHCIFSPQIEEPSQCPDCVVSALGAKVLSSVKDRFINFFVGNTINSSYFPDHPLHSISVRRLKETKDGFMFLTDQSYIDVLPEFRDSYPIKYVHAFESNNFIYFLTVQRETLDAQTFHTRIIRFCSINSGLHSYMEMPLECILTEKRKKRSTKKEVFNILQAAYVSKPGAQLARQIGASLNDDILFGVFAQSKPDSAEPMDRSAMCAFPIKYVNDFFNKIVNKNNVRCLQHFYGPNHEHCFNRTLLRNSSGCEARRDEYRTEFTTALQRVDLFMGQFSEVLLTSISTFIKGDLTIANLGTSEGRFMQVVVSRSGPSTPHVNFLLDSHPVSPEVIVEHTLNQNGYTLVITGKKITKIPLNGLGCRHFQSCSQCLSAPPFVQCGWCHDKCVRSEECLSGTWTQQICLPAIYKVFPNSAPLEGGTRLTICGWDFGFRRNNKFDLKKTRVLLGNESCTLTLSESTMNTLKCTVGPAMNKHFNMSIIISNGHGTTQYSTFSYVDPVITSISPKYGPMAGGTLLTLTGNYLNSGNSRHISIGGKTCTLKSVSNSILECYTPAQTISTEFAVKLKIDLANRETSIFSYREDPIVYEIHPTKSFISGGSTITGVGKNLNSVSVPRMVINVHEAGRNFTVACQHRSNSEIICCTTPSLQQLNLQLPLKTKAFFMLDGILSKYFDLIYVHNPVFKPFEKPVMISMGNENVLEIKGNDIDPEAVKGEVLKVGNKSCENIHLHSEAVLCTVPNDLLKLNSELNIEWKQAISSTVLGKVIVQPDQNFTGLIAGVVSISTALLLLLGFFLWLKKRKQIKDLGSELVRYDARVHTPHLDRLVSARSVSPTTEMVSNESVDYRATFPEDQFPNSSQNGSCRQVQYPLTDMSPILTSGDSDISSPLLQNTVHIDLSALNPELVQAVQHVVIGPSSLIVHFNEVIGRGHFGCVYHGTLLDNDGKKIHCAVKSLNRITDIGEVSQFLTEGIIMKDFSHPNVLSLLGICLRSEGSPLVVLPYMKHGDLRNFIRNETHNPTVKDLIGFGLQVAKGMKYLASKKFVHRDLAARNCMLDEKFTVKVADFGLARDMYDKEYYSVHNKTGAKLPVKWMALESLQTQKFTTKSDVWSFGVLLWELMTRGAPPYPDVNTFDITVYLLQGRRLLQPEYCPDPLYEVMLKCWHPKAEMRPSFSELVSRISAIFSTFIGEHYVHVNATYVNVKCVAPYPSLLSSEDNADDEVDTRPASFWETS

B1: AZD9592 (bispecific antibody, human IgG1, kappa, lambda)
anti EGFR heavy chain: QVQLVQSGAEVKKPGSSVKVSCKASGGTFSDNDFSWVRQAPGQGLEWMGAIVAVFRTETYAQKFQDRVKITADISTRTTYMELSSLRSEDTAVYYCARRLMSAISGPGAPLLMWGQGTLVTVSSASTKGPSVCPLAPSSKSTSGGTAALGCLVKDYFPEPVTVSWNSGALTSGVHTFPAVLQSSGLYSLSSVVTVPSSSLGTQTYICNVNHKPSNTKVDKRVEPKSVDKTHTCPPCPAPEFEGGPSVFLFPPKPKDTLMISRTPEVTCVVVDVSHEDPEVKFNWYVDGVEVHNAKTKPREEQYNSTYRVVSVLTVLHQDWLNGKEYKCKVSNKALPASIEKTISKAKGQPREPQVYTLPPCREEMTKNQVSLWCLVKGFYPSDIAVEWESNGQPENNYKTTPPVLDSDGSFFLYSKLTVDKSRWQQGNVFSCSVMHEALHNHYTQKSLSLSPGK
anti EGFR light chain: QSALTQPRSVSGSPGQSVTISCTGTSSDVGGYNYVSWYQQHPGKAPKLMIYDVSKRPSGVPDRFSGSKSGNTASLTISGLQAEDEADYYCSSYTSSDTLEIFGGGTKLTVLGQPKAAPSVTLFPPCSEELQANKATLVCLISDFYPGAVTVAWKADSSPVKAGVETTTPSKQSNNKYAASSYLSLTPEQWKSHRSYSCQVTHEGSTVEKTVAPTEVS
anti cMET heavy chain: QVQLVQSGAEVKKPGASVKVSCKASGYTFTDYYIHWVRQATGQGLEWMGWMNPNSGNTGYAQKFQGRVTMTRDTSISTAYMELSSLRSEDTAVYYCARGQGYTHSWGQGTMVTVSSASTKGPSVFPLAPSSKSTSGGTAALGCLVKDYFPEPVTVSWNSGALTSGVHTFPAVLQSSGLYSLSSVVTVPSSSLGTQTYICNVNHKPSNTKVDKRVEPKSCDKTHTCPPCPAPEFEGGPSVFLFPPKPKDTLMISRTPEVTCVVVDVSHEDPEVKFNWYVDGVEVHNAKTKPREEQYNSTYRVVSVLTVLHQDWLNGKEYKCKVSNKALPASIEKTISKAKGQPREPQVCTLPPSREEMTKNQVSLSCAVKGFYPSDIAVEWESNGQPENNYKTTPPVLDSDGSFFLVSKLTVDKSRWQQGNVFSCSVMHEALHNHYTQKSLSLSPGK
anti cMET light chain: DIQMTQSPSTLSASVGDRVTITCRASEGIYHWLAWYQQKPGKAPKLLIYKASSLASGVPSRFSGSGSGTEFTLTISSLQPDDFATYYCQQYSNYPPTFGGGTKLEIKRTVAAPSVFIFPPSDEQLKSGTASVVCLLNNFYPREAKVQWKVDNALQSGNSQESVTEQDSKDSTYSLSSTLTLSKADYEKHKVYACEVTHQGLSSPVTKSFNRGEC
[1]
  EC50 (read off the curve): ~0.9 nM
[2]
  EC50 (read off the curve): ~0.9 nM
[3]
  EC50 (read off the curve): ~2 nM
[4]
  EC50 (read off the curve): ~2 nM

B2: AZD9592-Ab (bispecific antibody, human IgG1, kappa, lambda)
anti-EGFR heavy chain: B1 anti EGFR heavy chain
anti-EGFR light chain: B1 anti EGFR light chain
anti-cMET heavy chain: B1 anti cMET heavy chain
anti-cMET light chain: B1 anti cMET light chain
notes: also called RAA22/B09-TM
[5]
  EC50 (read off the curve): ~2 nM
[6]
  EC50 (read off the curve): ~2 nM
[7]
  EC50 (read off the curve): ~4 nM
[8]
  EC50 (read off the curve): ~4 nM
[9]
  EC50 (read off the curve): ~9 nM
[10]
  EC50 (read off the curve): ~9 nM

B3: Bsab 12 (bispecific antibody, human IgG1, kappa, L234A L235A)
chain 1: not shown
chain 2: DIQMTQSPSSLSASVGDRVTITCKSSQSLLYTSSQKNYLAWYQQKPGKAPKLLIYWASTRESGVPSRFSGSGSGTDFTLTISSLQPEDFATYYCQQYYAYPWTFGQGTKVEIKRTVAAPSVFIFPPSDEQLKSGTASVVCLLNNFYPREAKVQWKVDNALQSGNSQESVTEQDSKDSTYSLSSTLTLSKADYEKHKVYACEVTHQGLSSPVTKSFNRGECGGGGSGGGGSGGGGSGGGGSGGGGSGGGGSGGGGSGGGGSEVQLVESGGGLVQPGGSLRLSCAASGYTFTSYWLHWVRQAPGKGLEWVGMIDPSNSDTRFNPNFKDRFTISADTSKNTAYLQMNSLRAEDTAVYYCATYRSYVTPLDYWGQGTLVTVSSASTKGPSVFPLAPSSKSTSGGTAALGCLVKDYFPEPVTVSWNSGALTSGVHTFPAVLQSSGLYSLSSVVTVPSSSLGTQTYICNVNHKPSNTKVDKKVEPKSCDKTHTCPPCPAPEAAGGPSVFLFPPKPKDTLMISRTPEVTCVVVDVSHEDPEVKFNWYVDGVEVHNAKTKPREEQYNSTYRVVSVLTVLHQDWLNGKEYKCKVSNKALPAPIEKTISKAKGQPREPQVYTLPPCREEMTKNQVSLSCAVKGFYPSDIAVEWESNGQPENNYKTTPPVLDSDGSFFLVSKLTVDKSRWQQGNVFSCSVMHEALHNHYTQKSLSLSPGK
notes: 1+1 scFab knob-in-hole format; also called Basb 12
[11]
  EC50 (read off the curve): ~2 nM
